Measured values: paper PMC11472053, “Structural basis of DNA recognition by BEN domain proteins reveals a role for oligomerization in unmethylated DNA selection by BANP” (Nucleic Acids Research, 2024)

Columns and labels:
NACC1 BEN R421A = target: T1, NACC1 BEN R421A (human, UniProt Q96RE7 341-477, R421A); experiment: ITC; ITC: 20 mM Tris pH 7.5, 200 mM NaCl, 2 mM beta-mercaptoethanol, 20 C; EMSA: 20 mM Tris pH 7.0, 200 mM NaCl, 2 mM DTT, 4 C, 1.2% agarose in TAE; details: protein: recombinant; tags: His-SUMO or His-MBP, cleaved; blunt, self-complementary
T1 sequence: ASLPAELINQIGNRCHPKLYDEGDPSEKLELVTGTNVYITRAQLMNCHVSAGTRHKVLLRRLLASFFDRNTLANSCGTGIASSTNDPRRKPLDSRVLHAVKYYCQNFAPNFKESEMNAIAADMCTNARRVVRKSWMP

NACC1 BEN N466A = target: T2, NACC1 BEN N466A (human, UniProt Q96RE7 341-477, N466A); experiment: as above; details: protein: recombinant; tags: His-SUMO or His-MBP, cleaved; blunt, self-complementary
T2 sequence: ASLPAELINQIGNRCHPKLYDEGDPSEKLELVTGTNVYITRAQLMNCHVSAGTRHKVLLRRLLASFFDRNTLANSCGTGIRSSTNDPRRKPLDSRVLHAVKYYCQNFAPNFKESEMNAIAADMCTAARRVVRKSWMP

NACC1 BEN R472A = target: T3, NACC1 BEN R472A (human, UniProt Q96RE7 341-477, R472A); experiment: as above; details: protein: recombinant; tags: His-SUMO or His-MBP, cleaved; blunt, self-complementary
T3 sequence: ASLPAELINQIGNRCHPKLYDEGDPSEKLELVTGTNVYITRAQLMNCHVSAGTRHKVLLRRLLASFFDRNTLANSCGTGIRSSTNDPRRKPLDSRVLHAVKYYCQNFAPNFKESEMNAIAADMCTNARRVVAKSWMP

NACC1 BEN D462A = target: T4, NACC1 BEN D462A (human, UniProt Q96RE7 341-477, D462A); experiment: as above; details: protein: recombinant; tags: His-SUMO or His-MBP, cleaved; blunt, self-complementary
T4 sequence: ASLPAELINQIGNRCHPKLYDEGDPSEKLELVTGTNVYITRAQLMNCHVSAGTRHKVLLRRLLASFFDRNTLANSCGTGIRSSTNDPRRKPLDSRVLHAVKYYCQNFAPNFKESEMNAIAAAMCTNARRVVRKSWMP

NACC1 BEN R429A = target: T5, NACC1 BEN R429A (human, UniProt Q96RE7 341-477, R429A); experiment: as above; details: protein: recombinant; tags: His-SUMO or His-MBP, cleaved; blunt, self-complementary
T5 sequence: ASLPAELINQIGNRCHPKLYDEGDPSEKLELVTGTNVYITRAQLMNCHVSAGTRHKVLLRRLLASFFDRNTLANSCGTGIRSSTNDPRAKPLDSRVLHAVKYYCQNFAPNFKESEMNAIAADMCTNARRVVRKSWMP

NACC1 BEN WT = target: T6, NACC1 BEN WT (human, UniProt Q96RE7 341-477); experiment: as above; details: protein: recombinant; tags: His-SUMO or His-MBP, cleaved; blunt, self-complementary
T6 sequence: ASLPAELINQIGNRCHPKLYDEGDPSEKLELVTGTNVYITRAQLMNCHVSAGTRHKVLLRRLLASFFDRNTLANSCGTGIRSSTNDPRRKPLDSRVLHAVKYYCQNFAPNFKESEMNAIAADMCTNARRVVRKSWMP

NACC1 BEN R469A = target: T7, NACC1 BEN R469A (human, UniProt Q96RE7 341-477, R469A); experiment: ITC; Kd N.A.; almost completely abolished; ITC: 20 mM Tris pH 7.5, 200 mM NaCl, 2 mM beta-mercaptoethanol, 20 C; EMSA: 20 mM Tris pH 7.0, 200 mM NaCl, 2 mM DTT, 4 C, 1.2% agarose in TAE; details: protein: recombinant; tags: His-SUMO or His-MBP, cleaved; blunt, self-complementary
T7 sequence: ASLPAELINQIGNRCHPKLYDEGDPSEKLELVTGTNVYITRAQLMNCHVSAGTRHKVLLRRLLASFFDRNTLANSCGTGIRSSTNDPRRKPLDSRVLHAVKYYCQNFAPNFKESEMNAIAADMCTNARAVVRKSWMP

BANP ΔCC = target: T8, BANP ΔCC (human, UniProt Q8N9N5 90-519); experiment: ITC; ITC: 20 mM Tris pH 7.5, 200 mM NaCl, 2 mM beta-mercaptoethanol, 20 C; EMSA: 20 mM Tris pH 7.0, 200 mM NaCl, 2 mM DTT, 4 C, 1.2% agarose in TAE; details: protein: recombinant; tags: His-SUMO or His-MBP, cleaved; blunt, self-complementary
T8 sequence: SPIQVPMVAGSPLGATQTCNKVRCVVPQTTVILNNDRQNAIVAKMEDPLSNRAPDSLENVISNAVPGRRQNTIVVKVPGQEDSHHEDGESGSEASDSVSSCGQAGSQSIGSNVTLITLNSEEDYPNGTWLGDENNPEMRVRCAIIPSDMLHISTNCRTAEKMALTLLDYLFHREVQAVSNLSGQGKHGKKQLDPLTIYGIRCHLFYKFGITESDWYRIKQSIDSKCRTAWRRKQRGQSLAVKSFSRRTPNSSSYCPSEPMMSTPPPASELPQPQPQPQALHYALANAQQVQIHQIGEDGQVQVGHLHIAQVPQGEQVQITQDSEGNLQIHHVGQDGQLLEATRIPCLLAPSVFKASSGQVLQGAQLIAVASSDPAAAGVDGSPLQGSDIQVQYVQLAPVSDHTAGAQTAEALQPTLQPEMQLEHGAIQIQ

BANP CC-BEN (ΔDBD) = target: T9, BANP CC-BEN (ΔDBD) (human, UniProt Q8N9N5 1-360); experiment: as above; details: protein: recombinant; tags: His-SUMO or His-MBP, cleaved; blunt, self-complementary
T9 sequence: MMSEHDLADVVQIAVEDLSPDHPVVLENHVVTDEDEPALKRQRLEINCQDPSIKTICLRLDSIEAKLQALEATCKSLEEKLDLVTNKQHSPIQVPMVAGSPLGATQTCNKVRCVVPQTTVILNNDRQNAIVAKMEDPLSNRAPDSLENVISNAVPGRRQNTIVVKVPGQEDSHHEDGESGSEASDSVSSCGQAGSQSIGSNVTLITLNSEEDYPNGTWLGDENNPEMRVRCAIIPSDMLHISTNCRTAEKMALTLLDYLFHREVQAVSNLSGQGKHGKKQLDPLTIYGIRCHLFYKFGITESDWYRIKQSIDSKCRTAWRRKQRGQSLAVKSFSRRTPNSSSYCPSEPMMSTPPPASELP

BANP BEN WT = target: T10, BANP BEN WT (human, UniProt Q8N9N5 205-325); experiment: as above; details: protein: recombinant; tags: His-SUMO or His-MBP, cleaved; chain copies: 2; blunt, self-complementary
T10 sequence: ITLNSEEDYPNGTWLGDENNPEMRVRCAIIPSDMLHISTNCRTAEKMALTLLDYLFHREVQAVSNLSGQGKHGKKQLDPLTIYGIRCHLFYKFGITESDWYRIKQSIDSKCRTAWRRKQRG

BANP full-length WT = target: T11, BANP full-length WT (human, UniProt Q8N9N5 1-519); experiment: as above; details: protein: recombinant; tags: His-SUMO or His-MBP, cleaved; chain copies: 4; blunt, self-complementary
T11 sequence: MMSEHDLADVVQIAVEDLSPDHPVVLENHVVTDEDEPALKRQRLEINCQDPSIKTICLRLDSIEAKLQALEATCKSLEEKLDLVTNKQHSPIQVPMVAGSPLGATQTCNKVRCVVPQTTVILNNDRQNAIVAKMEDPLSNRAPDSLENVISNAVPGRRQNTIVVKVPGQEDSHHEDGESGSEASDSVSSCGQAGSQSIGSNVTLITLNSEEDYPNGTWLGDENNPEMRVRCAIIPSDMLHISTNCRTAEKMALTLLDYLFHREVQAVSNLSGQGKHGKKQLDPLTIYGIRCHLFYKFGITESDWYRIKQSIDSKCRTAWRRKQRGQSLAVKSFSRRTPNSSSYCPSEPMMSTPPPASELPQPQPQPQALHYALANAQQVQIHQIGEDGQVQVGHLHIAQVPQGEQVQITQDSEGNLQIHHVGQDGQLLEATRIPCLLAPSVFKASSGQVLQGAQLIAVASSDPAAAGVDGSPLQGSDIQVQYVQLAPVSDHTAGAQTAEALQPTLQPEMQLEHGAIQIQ

GST-BANP BEN = target: T12, GST-BANP BEN (human, UniProt Q8N9N5 205-325); experiment: as above; details: protein: recombinant; tags: N-terminal GST fusion; chain copies: 2; blunt, self-complementary
T12 sequence: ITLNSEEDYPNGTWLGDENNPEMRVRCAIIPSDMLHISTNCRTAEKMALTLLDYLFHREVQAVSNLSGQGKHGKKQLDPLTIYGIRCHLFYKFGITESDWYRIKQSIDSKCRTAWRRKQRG

BANP BEN-DBD = target: T13, BANP BEN-DBD (human, UniProt Q8N9N5 205-519); experiment: as above; details: protein: recombinant; tags: His-SUMO or His-MBP, cleaved; blunt, self-complementary
T13 sequence: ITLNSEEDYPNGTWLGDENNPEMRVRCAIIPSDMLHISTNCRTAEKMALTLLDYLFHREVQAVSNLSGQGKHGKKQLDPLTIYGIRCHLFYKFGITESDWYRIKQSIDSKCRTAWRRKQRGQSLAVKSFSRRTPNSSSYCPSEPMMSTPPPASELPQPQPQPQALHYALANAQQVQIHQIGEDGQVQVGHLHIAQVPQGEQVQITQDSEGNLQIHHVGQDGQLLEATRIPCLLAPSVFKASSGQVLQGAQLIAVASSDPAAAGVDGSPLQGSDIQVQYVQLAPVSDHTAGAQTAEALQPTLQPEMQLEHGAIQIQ

B1: 12-CATG (dsDNA)
DNA 1: ATTACATGTAAT
DNA 2: ATTACATGTAAT
In the case of B1, the Kd (NACC1 BEN R421A) is reported as 4.6 ± 0.6 µM, the Kd (NACC1 BEN N466A) is reported as 2.9 ± 0.4 µM and the Kd (NACC1 BEN R472A) is reported as 8.6 ± 1.4 µM. The Kd (NACC1 BEN D462A) was 4.6 ± 0.4 µM, the Kd (NACC1 BEN R429A) was 34.7 ± 4.5 µM and the Kd (NACC1 BEN WT) was 1.3 ± 0.2 µM. B1: no binding (NACC1 BEN R469A).

B2: 12-mCGCG (dsDNA)
DNA 1: ATCTCGCGAGAT
DNA 2: ATCTCGCGAGAT
modifications: 5-methyl-C at position 5 of each strand (palindrome; called hemi-methylated, one CpG methylated)
B2 showed a Kd (BANP ΔCC) of 5.6 ± 0.9 µM, a Kd (BANP CC-BEN (ΔDBD)) of 4.3 ± 0.8 µM and a Kd (BANP BEN WT) of 5.6 ± 0.7 µM. It also gave a Kd (BANP full-length WT) of 4.9 ± 1.4 µM, a Kd (GST-BANP BEN) of 3.5 ± 0.6 µM and a Kd (BANP BEN-DBD) of 8.3 ± 0.6 µM.
